Results: paper PMC7863765

Target: T1, untagged full-length human 14-3-3ζ (human), P63104
T1 chain: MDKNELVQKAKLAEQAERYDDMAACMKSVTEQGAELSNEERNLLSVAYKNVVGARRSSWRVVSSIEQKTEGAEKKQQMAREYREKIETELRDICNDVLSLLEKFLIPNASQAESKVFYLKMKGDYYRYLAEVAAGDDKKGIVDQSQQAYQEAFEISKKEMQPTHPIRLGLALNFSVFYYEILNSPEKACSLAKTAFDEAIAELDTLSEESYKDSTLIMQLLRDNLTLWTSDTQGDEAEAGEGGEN
Experiment: SEC
Conditions: remark: other sources report otherwise

B1: untagged full-length human 14-3-3ζ, P63104 1-245 (natural protein)
chain: T1 chain
stoichiometry N: 2
